B1: TPR t1 (parent)
chain: GACCAAUCUGCCCUCAGAGCUCGAGAACAUCUUCGGAUGCAGAGGAGGCAGGCUUCGGUGGCGCGAUAGCGCCAACGUCCUCAACCUCCAAUGCAUCCCACCACAUGAUGAUGCCUGAAGAGCCUUGGUUUUUUG

Variants of: B1
Assay: polymerase ribozyme fitness, log enrichment relative to wild type (log ratio); higher = more active; in vitro selection for triplet polymerase activity
In short: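 Mutant libraries of both subunits of a heterodimeric triplet polymerase ribozyme were PCR-built, transcribed, and selected once in triplicate, with frozen incubation at −7 °C and capture of gel-excised extended constructs on streptavidin beads before RT-PCR. Illumina sequencing of input and output libraries was filtered to genotypes with ≥10 input reads and ≥1 read per output. Fitness is the logarithm of genotype enrichment over wild-type enrichment, using inverse-variance-weighted replicate averages. The logarithm is base 2.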

Going from GACAAAUCUGCCCUCAGAGCUCGAGAACAUCUUCGGAUGCAGAGGAGGCAGGCUUCGGUGACGCGAUAGCGCCAACGUCCUCAACCUCCAAUGCAUCCCACCACAUGAUGAUGCCUGAAGAGCCUUAGUUUUUUG to GACAAAUCUGCCCUCAGAGCUCGAGAACAUCUUCGGAUGCAGAGGAGGCAGGCUUCGGUGGCGCGAUAGCGCCAACGUCCUCAACCUCCAAUGCAUCCCACCACAUGAUGAUGCCUGAAGAGCCUUAGUUUUUUG, the “polymerase ribozyme fitness (log ratio)” value rises from -2.92 to -1.82.

Going from GACAAAUCUACCCUCAGAGCUCGAGAACAUCUUCGGAUGCAGAGGAGGCAGGGUUCGGUUGCGCGAUAGUGCCUACGUCCUCAACCUCCAAUGCAUCCCACCACAUGAUGAUGCCUGAAGAGACUUGGUUCUUUG to GACAAAUCUGCCCUCAGAGCUCGAGAACAUCUUCGGAUGCAGAGGAGGCAGGCUUCGGUGGCGCGAUAGCGUCAACGUCCUCAACCUCCAAUGCAUCCCACCACAUGAUGAUGCCUGAAGAGCCUUGGUAUUUUG, the “polymerase ribozyme fitness (log ratio)” value falls from -1.36 to -2.53.

First: GACAAAUCUGCCCUCAGAGCUCGAGAACAUCUUCGGAUGCAGAGGAGCCAGGCUUCGGUGACGCGAUAGCGCCAACGUCCCCAACCUCCAAUGCAACCCACCACAUGAUGAUGCCUGAAGAGCCUUGGUUUUUUG
Second: GACAAAUCUGCCCUCAGAGCUCAAGAACAUCUUCGGAUGCAGAGGAGGCGGGCUUCGGUGCCGCGAUAGCGCCAACGUCCUCAACCCCCAAUGCGUCCCACCACAUGAUGAUGCCUUAAGAGGCUUGGUUUUUUG
The “polymerase ribozyme fitness (log ratio)” value of the first is higher: -3.76 for the first, -6.54 for the second.

First: GACAAAUCUGCCCUCAGAGCUCGAGAACAUCUUCGGAUGCAGAGGAGGCAGGCUCCGGUGGCGCGAUAGCGCCAACGUCCUCAACCUCCAAUGCAUCCCACCACAUGAUGAUGCCUGAAGAGCCUUGGUUUUUUG
Second: GACAAAUCUGCCCUCAGAGCUCGAGAACAUCUUCGGAUGCAGAGGAGGCAGGCUUCGGUGGCGCGAUAGCGUCAACGUCCUCAACCUCCAAUGCAUCCCACCACAUGAUGAUGCCUCAAGAGCCUUGGUUAUUUG
The “polymerase ribozyme fitness (log ratio)” value of the first is higher: -2.5 for the first, -5.79 for the second.

Going from GACGAAUCUGCCCUCAGAGCUCGCGAACAUCUUCGGAUGCAGAGGAGGCAGGCUUCGGUGGCGCGAUAGCGCCAACGUCCUCAACCUCCAAUGCAUCCCCCCACAUGAUGAAGCCGGAAGAGCCUUGGUUUUUUG to GACAAAUCUGCCCUCAGAGCUCGAGAACAUCUUCGCAUGCACAGGAGGAAGGCUUCGGUGGCGCGAUAGCGCCAACGUCCUCAACCUCCAAUGCAUCCCACCACAUGAUGAUGCCUGAAGAGCUUUGGUUUUUUG, the “polymerase ribozyme fitness (log ratio)” value rises from -5.42 to -4.12.

Compared with GACAAAUCUGCCCUCAGAGCUCGAGAACAUCUUCGGAUGCAGAGGAGGCAGGCUUCGGUGGCGCGAUAGCGUCAACGUCCUCAACCUCCAAUGCAUCCCACCACAUGAAGAUGCUUGAAGAGCCUUGGUUUUUUG, GACAAAUCUGCCCUCAGAGCUCGAGAACAUCUUCGGAUGCAGAGGAGGCAGGCUUCGGUGGCGCGAUAGCGCCAACGUCCUCAACCUCCAAUGCAUCCCACCACAUGAUGAUGCCUCAAGAGCCUUGGUUUUUUG is higher in “polymerase ribozyme fitness (log ratio)” value: -6.54 for the first, -4.54 for the second.

Going from GACAAAUCUGCCCUCAGAGCUCGAGAACAUCUUCGGAUGCAGAGCAGGCAGGCUUCGGUGGCGCGAUAGCGCCAACGUCCUCAACCUCCAAUGCAUCCCACCACAUGAUGAUGCCUGAAAAGCCUUCGUUUUUUG to GACAAAUCUGCCCUCAGAGCUCGAGAACAUCUUCGGAUGCAGAGAAGGCAGGCUUCGGUGGCGCGAUAGCGACAACGUCCUCAACCUCCAAUGCAUCCCACCACAUGAUGAUGCCUGAAGAGACUUGGUUUUUUG, the “polymerase ribozyme fitness (log ratio)” value rises from -1.29 to -0.972.

First: GACAAAUCUGCCCUCAGAGCUCGAGAACAUCUUCGGAUGCAGAGGAGGCAGGCUUCGGUGGCGCGAUAGCGCCAACGUCCUCAACCUCCAAUCCAUCCCACCACAUGAUGUUGCCUGAAGAGCCUUGGUUUUUUG
Second: GACGCAUCUGCCCUCAGAGCUCGAGAACAUCUUCGGAUGCAGAGGAGGCAGGCUUCGGUGUCGCGAUAGCGCCAACGUCCUCACCCUCCAAUGCAUCCCACCACAUGAAGAUGCCUGAAGAGCCUUGGUUGUUUG
The “polymerase ribozyme fitness (log ratio)” value of the first is higher: -4.69 for the first, -5.51 for the second.

First: GACAAAUCUGCCCUCAGAGCUCGAGAACAUCUUCGGAUGCAGAGGAGGCAGGCUUCGGUAGCGCGAUAGCGCCAACGCCCUCAACCUCCAAUGCAUCCCACCACAUGAUGAUGCCUGAAGAGCCUUGGUUUUUUG
Second: GACAAAUCUGCCCUCAGAGCUCGAGAACAUCUUCGAAUGCAGAGGAGGCAGGCUUCGGUGGCGCGAUAGCGCAAACGUCCUCAACCUCCAAUGCAUCCCACCACAUGAUGAUGCCUGAAGAGCCUUGGUUUUUUG
The “polymerase ribozyme fitness (log ratio)” value of the first is higher: -2.08 for the first, -3.19 for the second.

Going from GACAAAUCUGCCCUCAGAGCUCGAGAACAUCUUCGGAUGCAGAGGAGGCAGGCUUCGGUGGCGCGAUAGCGCCAACGUCCUCAACCUCCAAUACAUCCCACCACAUGAUGAUGCCUGAAGAGCCUUGGUUUUUUG to GACAAAUCUGCCCUCAGAGCUCGAGAACAUCUUCGGAUGCAGAGGAGGCAGGCUUCGGUGGCGCGAUAGCGCCAACGUCCUCAACCUUCAAUGCAUCCCACCACAUGAUGAUGCCUGAAUAGCCUUGGUUUUUUG, the “polymerase ribozyme fitness (log ratio)” value falls from -1.73 to -2.67.

First: GACAAAUCUGCCCUCAGAGCUCGAGAACAUCUUCGGAUGCAGAGGAGGCAGGCUUCGGUGCCGCGAUAGCGCCAACGUGCUCAACCUCCAAUGCAUCCCACCACAUGAUGAUGCCUGAAGAGCCUUGGUUUUUUG
Second: GACAAAGCUGCCCUCAGAGCUCGAGAACAUGUUCGGAUGCAGAGGAGGCAGGCUUCGGUGGCGCGAUAGGGCCAACGUCCUCAACUCCCAAUGCAUCCCACCACAUGAUGAAGCCUGAAGAGCCUUGGUUUUUUG
The “polymerase ribozyme fitness (log ratio)” value of the first is higher: -3.95 for the first, -5.92 for the second.

Compared with GACAAAUCUGCCCUCAGAGCUCGAGAACAUCUUCGGAUGCAGAGGAGGCAGGCUUCGGUGGCGCGAUAGCGCCAACGUCCUCAACCUCCAAUGCAUCCCACCAAAUGAUGAUGCCUGAAGAGCCUUGGUUUUUUG, GACAAAUCUGCCCUCAGAGCGCGAGAACAUCUUCGGAUGCAGAUGAGGCAGGCUUCGGUGGCGCGAUAGCGCCAACGUCCUAAACCUCCAAUGCAUCCCACCACAUGAUGAUGCCUGAAGAGCGUUGGUUUUUUG is lower in “polymerase ribozyme fitness (log ratio)” value: -2.32 for the first, -3.89 for the second.

Going from GACAAAUCUGCCCUCAGAGCUCGAGAACAUCUUCGGAUGCAGAGAAGGCAGCCUUCGGUGGCGCGAUAGCGCCAACGUCCUCAACCUCCAAUGCAUCCCACCACAUGAUGAUGCCUGAAGAGCCUUGGUUUUUUG to GACAAAACUGCCCUCAGAGCUCGAGAACAUCUUCGGAUGCAGAGGAGGCAGGCUUCGGUGGCGCGAUAGCGCCAACGUCCUCAACCUCCAAUGCAUCCCACCACAUGAUGAUGCCUGAAGAGCCUUGGUUUUUUG, the “polymerase ribozyme fitness (log ratio)” value rises from -2.98 to -0.986.

Compared with GACGAAUCUGCCCUCAGAGCUCGAGAACAUCUUCGGAUGCAGAGGAGGCAGGCUUCGGUGGCGCGAUAGCGCCAACGUCCUCAACCUCCAAUGCAUCCCACCACAUGAUGAUGCCUGAAGAGCCUUGGUUUUUUG, GACAAAUCUGCCCUCAGAGCUCGAGAACAUCUUCGGAUGCAGAGGAGGCAGGCUUCGGUGGCGCGAUAGCGCCAACGUCCUCAACCUCCAAUGCAUCCCACCACAUGAUGAUGUCUGAAGAGCAUUGGUUUUUUG is lower in “polymerase ribozyme fitness (log ratio)” value: -1.33 for the first, -2.3 for the second.

Compared with GACAAAUCUGCCCUCAGAGCUCGAGAACAUCUUCGGAUGCAGAGGAGGCAGGCUUCGGUGACGCGAUAGCGCCAACGACCUCAACCUCCAAUGCAUCCCACCACAUGAUGAUGCCUGAAGAGCCUUGUUUUUUUG, GACAAAUCUGCCCUCAGAGCUCGAGAACAUCUUCGGAUGCAGAGGAGGCAGGCUUCGGUGGCGCGAUAGGGCCAACGUACUCAACCUCCAAUGCAUCCCACCACAUGAUGAUGUCUGAAGAGCCUUGGUUUUUUG is lower in “polymerase ribozyme fitness (log ratio)” value: -1.35 for the first, -5.9 for the second.

Compared with GACAAAUCUGCCCUCAGAGCUCGAGAACAUCUUCGGAUGCAGAGGAGGCAGGCUUCGGUGGCGCGAUACCGCCAACGUCCUCAACCUCCAAUGCAUCCCACCACAUGAUGAUGCCUGAAGAGCCUUGGUUUUUUG, GACAAAUCUGCCCUCAGAGCUCGAGAACAUCUUCGGAUGCAGAGGAGGCAGGCUUCGGUGGCGCGAUAUCGCCAACGUCCUCAACCUCCAAUGCAUCCCACCACAUGAUGAUGCCUGAAGAGCCUUGGUUUUUUG is higher in “polymerase ribozyme fitness (log ratio)” value: -3.61 for the first, -0.0821 for the second.

GACAAAUCUGCCCUCAGAGCUCGAGAACAUCUUCGGAUGCAGAGGAGGCAGGCUUCGGUGGCGCGAUAGCGCCAACGUCCUCAACGUCCAAUGCAUCCCACCACAUGAUGAUGCCUGAAGAGCCUUGGUUUUUUG and GACAAAUCUGCCCUCAGAGCUCGAGAACAUCUUCGGAUGCAGAGGAGGCAGGCUUCGGUGGCGCGAUAGCGCCAACGUCCUCAACAUCCAAUGCAUCCCACCACAUGAUGAUGCCUGAAGAGCCUUGGUUUUUUG are within 0.2 log units of each other in “polymerase ribozyme fitness (log ratio)” value: -2.58 for the first, -2.74 for the second.

Compared with GACAAAUCUGCCCUCAGAGCUCGAGAACAUCUUCGGAUGCAGAGGAGGCAGGCUUCGGUGGCGCGAUAGCGCCAACGUCCUCAACCUCCAAUGCAUCCCACCACAUGAUGAAGCCUGAUGAGUCCUGGUUUUUUG, GACAAAUCUGCCCUCAGAGCUCGAGAACAUCUUCGGAUGCAGAGGAGGCAGAAUUCGGUGGCGCGAUAGCGUCAACGUCCUCAACCUCCUAUGCAUCCCACCACAUGAUGAUGCCUGAAGAGCCUUGGUCUUUUG is lower in “polymerase ribozyme fitness (log ratio)” value: -0.636 for the first, -3.37 for the second.

Compared with GACAAAUCUGCCCUCAGAGCUCGAGAACAUCUUCGGAUGCAGAGGAGGCAGGCUUCGGUGGCGCGAUAGCGCCAACGUCCUCAACCUCCAAUGCAUCCCACCACAUGAUGAUGGCUGAAGAGCCUUGGUUUUUUG, GACAAAUCUGCCCUCAGAGCUCGAGAACAUCUUCGGAUGCAGAGGAGGCAGGCUUCGGCGGCGCGAUAUCGCCAACGUCCUCAACCUCCAAUGCAUCCCACCACAUGAUGAUGCUUGAAGAGCCUUGGUUUUUUG is higher in “polymerase ribozyme fitness (log ratio)” value: -4.25 for the first, -3.99 for the second.

Going from GACGAAUCUGCCCUCAGCGCUCGAGAACAUCUUCGGAUGCAGAGGAGGCAGGCUUCGGUGGCGCGAUAGCGCCAACGUCCUCAACCUCCAAUGCAUCCCACCACAUGAUGAUGCCUGAAGAGCCUUGGUUUUUUG to GACAAAUCUGCCCUCAGAGCUCGAGAACAUCUUCGGAUGCAGAGGAGGCAGGCUUCGGUGGCGCGAUAGCGUCAACGUCCUCAACCUCCAAUGCAUCCCACCACAUGAUGAUGCCUGAAGAGCCUUGGUUUUUUG, the “polymerase ribozyme fitness (log ratio)” value rises from -3.16 to -1.93.

Going from GACAAAUCUGCCCUCAGAGCUCGAGAACAUCUUCGGAUGCAGAGGAGGCAGGCUUCGGUGGCGCGAUAGCGCCAACGCCCUCAACCUCCAAUGCAUCCCACCACAUGAUGAUGCCUGAAGAGCCUUGGUUUUUUG to GACAAAUCUGCCCUCAGAGCUCGAGAACAUCUUCGGAUGCAGAGGAGGCAGGCUUCGGUGGCGCGAUAGCGUCAACGUCCACAACCUCCAAUGCAUCCCACCACAUGAUGAUGCCUUAAGAACCUUGGUUUAUUG, the “polymerase ribozyme fitness (log ratio)” value falls from -1.45 to -6.42.
